Among the data in paper PMC5954120 are Kd values, retold here.

This test has as its target GST-Pmp23 (S. pneumoniae) (UniProt Q8DPY9). Description: MST; 100 nM GST-Pmp23 labeled with NT-647, titrated with PBP2x (7 nM to 235 μM) or BSA (5 nM to 360 μM); 25 °C; 50 mM Tris-HCl, 150 mM NaCl, 10 mM MgCl2, 0.05% Tween-20; triplicates.
Sequence of UniProt Q8DPY9 (Q8DPY9 whole entry): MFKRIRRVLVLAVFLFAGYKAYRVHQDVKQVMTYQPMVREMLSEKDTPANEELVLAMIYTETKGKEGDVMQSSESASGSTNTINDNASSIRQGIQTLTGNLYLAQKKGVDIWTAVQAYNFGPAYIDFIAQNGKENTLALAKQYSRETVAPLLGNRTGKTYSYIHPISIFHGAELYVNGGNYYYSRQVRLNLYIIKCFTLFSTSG

Consider “extracellular domain of PBP2x (domain or fragment)”, for which the Kd – broadly, the constant that tells how readily two partners part at equilibrium – was 9 µM.
